For orientation: Kd means the equilibrium constant for the complex coming apart. As usually defined, the stoichiometry N is a count of units in the complex or per binding partner.

Data on three substances can be found in article PMC6093495.

In test [1] the target is OmpF trimer (Escherichia coli (endogenous in B^E3000)) (UniProt P02931). Briefly: ITC.
The target of the next test is OmpF (Escherichia coli) (UniProt P02931). As to the kind of experiment: ITC. The conditions noted are these: cited from earlier work.

In test [1], “(OBS2)3, TMEA-mediated tridentate OBS2 in the form of a colicin DNase fusion (S71C ColE9^53–83-DNase) (from UniProt P09883 53-83)” had a Kd of 0.48 µM, a dH of -5.64 kcal·mol^–1 and a stoichiometry N of 3.

As for “Colicin E9 OBS1 peptide OBS1 (from UniProt P09883)”, in the test with OmpF (Escherichia coli), the equilibrium dissociation constant (Kd) was 2 µM.

With Colicin E9 OBS2 peptide, the Kd with OmpF (Escherichia coli) is 24 µM.
